From the NTF2 design screens of Basanta et al. (2020)

Assay: protease stability score; higher = more stable; yeast display proteolysis, trypsin and chymotrypsin;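 also: relative to predicted unfolded state with 0 unfolded-like and 1 meaning tenfold more protease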

Sequence | protease stability score
DEHEKHDRELKRIWVELFETGDEDTLIELADPNPRSRVNGKEFHGMEDIVQFLREWKMRIKGVREEIHHVDVINGRVRIDMKRFVGDKEFDVTIHLYVINGRFKQEEVRVH | 0.222
DEDDELEDKFEEILRYSLHTGDWEEWRKRVDPHVKLIINGREIIGMERAAKFFIDLERKLGVDVKHHEIRHEDKQGDKLHLETRVELRQGDKVIILHMHLHLEKINGQWIIREVRFD | 1.47
SEREKHWRDWVENVVEYHTHLLETGDEEEWKRFFRRLADPHVRMIVGDKVTHGREDAMRLFDELIKLLGVNHVHFRRVEIIGNKVNIDVELRQGNKFINLELILIVIDGKLENVERRVH | 1.14
DDEEKEDKDAIKLLVKFWETGDWENISRMMDPHVRLEVGEFTYHGREHFSRLYLEQYERVDHIQFRIHHLEVVGDKMTADTEVHIDINGRHIRLRTHINMIKINGRWRLHSVLIN | 1.48
DEDKKRSEEISKTMIEAMETGDEDRLHELLDPHVRMEIRIGDKHIIDHGREMMLHWSRRYPNLQFRLSHIDVQGDKIHAHWLVHIGDKTRDVELELQVVDGQIHSIHLRIR | 1.52
DEDTRDAEQFLKELLHNQITGDEESEDKLADPNVRIIINGREIHGRETWIKWRRQARITFEDQRVHSIHMIGDKLVLKIEIDGNLSFNGREIRDTVEIEIVVTKVNGRWVLDQVHFK | 1.63
DEEEERLEELSKLLLEMVLTGNWDETLELADPHALIEIGDKRFHGWEHWVKLYLRIKNVRFELRIDSVRPIGDKAEIDGHVIIRIGDKEKEFDLRVEIDVVDGRLKENSIRRR | 1.35
DRQKEILRELMEMFLTIFETGDEERFWELADPHVRHVIDIGDKEIRRVGREEMLKVWEHLYREMRIHRITLKDVRLVNGVFHAHVKVDGEYNGQRRETEMDIELNVVNGRVKSLIIHIQ | 1.89
TEEHEEARRAMKIIVDLLDTGDWKTISRYFDPNVRFEVGDKTYHGREEVLNRFIELGHSNIDVKLHHMELYGDKVVIDSRMNVDGRTHEIEWHSRKYNGRWRLHELHVR | 1.12
SEEHEIIERMMRLFLNYYFTGDEESIQKNADPDVKLNINGRDIHGRERIAEHLFDEIKHLRWHHLHIHSFIVQGEKARVDTRFDGEVDGVRTIFETEIILVVVNGRMKSIEVHRR | 1.28
SEDQREIKDFFKILSKALTTGDEEITSAMMDPHVRMDYNGKEHHGRDFLTELMKRADHWEHRLEVRSVRIIGDKVDVEGHMILHILIGDKEIRVRVDLDIELWKVDGRWIVKEITIK | 1.04
SEDEEYIRELMKLIAQITQTGDEELFRRLVDPHTRLVQGDKQYHGWHAFRVFLEEMRIKSVRVEVRRIEIQGEYVHVDTHWQLHVHYNGRDIDLHIDVRNIVHKVNGRWIIRHIHVE | 0.986
DEEEKHLRDMMEIVIKLFMTGDWDAFHEMADPDVKFQVDVGDKHIHRHGREEVVEELIRLLEHWRVRNIRIHDIKLIGDKLVVEGRWETSYGDKSHDEDVELIVIVVDGKIKKVRIIIR | 2.72
HDEEKHDREYVEEMLEVWLTGDFDRIMHLFDPNARQEVNGVDIVGRERLHEFNRRWEEDMGFDHSHTHHVEVVNGRVHSDTRVHFNGREMETHLDLRVVNGRIKSIRVSYN | 0.094
SELEELMKRLVKDWLHNWITGNEDRIWELADPDALVHFDGVISHGREEVIKLIRRFTEELRIHRIQIDHIKIQGDKIHIHLTEDGTIGDKRKEINVEIILFIINGKFKSSEIRIR | 1.49
SEEEELDRRITDLIVHARKTGDEEMWQRYADPHVRLFWFQGDYLLMIVGREDASKWMRHLLEELGIKHIEFKHIDIFDGRSHIDSRVKVNGKERETRHQFVVVNGRITEVREKID | 0.415
SEDEHSWRLAREEFRKTNETGNEEDLSRLFDPHVRIDINGREIHGRDEASELFHKLGIDHIRWRVKRVKIFDGRMENRGELILIFNGREHRYDITVISSKIDGQWSVESMHYK | 0.534
DELQKMAKHWIELMIRAQETGDEEELKKYLDPDVRIDVDGRELHGREKADELLKEIRIHEFEIKHMRFQGDKLHLHGTDNQRQGNYEYHVEVTYHLIKINGRWSLREIRVE | 0.637

Sequence | protease stability score
SEVAEVAREIVEIITKREYTGDEKTLDRMMDPNVRVEIGDWEIIGRDIYQKFVIELRVKDMHVRFKDVRVQGDFAFQDTELRMHGIIDGKDRETSHDTHWVFYKVDGRWLVHSIHIK | 1.3
SEVEEWLRTLIHLIILAFRTGDEDQMRRNFDPNARVHVGDKDYHGRELFEEMMHHWRLHHIHIHDVRVQGDYVEADIKLDGEVNGKRFTTRVIIVFLKIDGKWQEKESEFV | 0.395
DEEEERARHWIERFVRAVLTGDWEHILRNADPNVRLHVGDKEIHGRERMIETFREFWERYPGVRIKIHQVEIQGEKSHLDGEIRFDGRRFRVEFEVVIINGKIHELHIRIH | 2.62
NEDEHRARFIFRILTKAILTGDEDFLHRFADPNVRIHVNGVNLIGMEEWLRHLKELRIHFITSHVREIDKIDGVMIVHGEFVIDGEVNGKRDTWHTEIHLVITKVNGRWILHELHTR | 2.58
DEKDRISKKIVELWMRALITGDEEEMDRMADPDVRIKYGDKVSHGMEEARETWEHIRWRDIRLDHVDSYNGRIRIDGTVHIEINGREDTTRVEIILHVIDGRIKEIRVIIR | 1.3
NEDEDKMKEWIETLHKSLETGDEKTLSKLFDPRVQYDIGDKKYHGWRHYLELILRIDHERREIHHVEVVNGRVEIDVRVHIHINGQDYEKKTILHVEKIDGKWLNKKVQIV | 1.16
DEEEEHMKHHLDLWIKLVQTGNEEHIARMIDPNARFDINGKEEHGRESFRKHLHEILKFFGVDRFHHEIKELRVIDGRVHSVTLWEINGQRLDTRIHAHKVNGVWLVHSLEIK | 1.14
DEEKHLALFLYRILVKWWLTGNEEDESHLADPHTRFEVNGVELIGRELSSHMIERELREIRVIIEIEEFRTVGDKVDIRLTLKYEYGDKEDSRESHLELIIIDGKTTHVEVRER | 1.6
DEDKEIAEKVAREVFHNFMTGDEDRHLELADPHTRLRVGEWENHGRDQVKRMFERQRRRFDHLERIEIKDVRIYDGVVHLHVEVHGVINGVSTTLEMRVYFVVVNGQLKRSSIHIH | 0.373
DEEKEEIELAIRLTEKMLKTGDEELWRENADPNARFVTENHDDHGREVIVKWVHEMRRKFKNMRLEIEDVRTFNGRLEIHLRLNVNGRDLKINIIVEKVNGRWFLREIEIQ | 1.74
SEEDKHTEKLVRELWHAFETGDEDFILDMADPDVKFDFNGRKNVGREEFSRIWEDIFRRFKNIQLELTSITFQGHKVHTKGRTRINGKHHELIVHVVIVNGRLESLTIIIN | 1.49
DEEEEHSKNFLRLWINLWLTGDWRNLLKLADPNAKVVINGVRIHGMEFLVRLLHEEMEQVKNMRIHIHDRRLQGDKSTEILILHFDGVFYETRFHIDIVNGKVRRFQEERE | 0.181
SEDEELMKKVFEIFLNHLETGDWRELEKLLDPHAQLNIDGRDYHGWDKITEEMRKLGMTMHSELEHVRFQGDKIDLKGYVKVRIGDKEIRRSTRYVALKVDGRWEERSIILL | 1.41
DEEEESNRHLAEKFEEHHRTGDWRMMSKMFDPHVRVERIFNGRTVIIHGWEKYVKTVKDEFERIKGARLIIDDMKVQGEKSRVEGTLKINGRTVEVDIHLDIVDGRLRHVRIEIE | 0.201
DEDEHDAEIWVRLVLKSLRTGDEEFLVKMADPNVRVEVGDKKDHGRNEFRKVVHKFKGVRREIHHVDVHIQGNKAEVEIHGKLNINGVEVHIIHIIRSEKVDGQWYISEVWIIIR | 1.55
DETASRAAERYMKALQTGDPDEVVKQIDPNVHVRVGDKEVQGKEQFRKKQERDKKQARYHIKHVTFNVEGDKVRVDVIFRKHHNGQPRHDRMEQRMSVRGDKITHQENHKTG | 0.172
SEDEEDLRRIFELLMELWLTGDERHMEHLIDPNAKLHYDGVEYHGREDARRLIHRFDVFEDARVRRVRLIDGQVRMDTHFIGRVDGRRIQVDSIIFMRKINGRWVSKEEVYV | 1.34
EEDEEITKLYLEIILHIWLTGNEEELLRMFDPNARVDINGVINIGREDLLKRFHEHWRKYGAKHIRVRDIKFHIFNGVIYINLHLELIVGDKTFHVHLHMRSRKVDGRWHTHEFEERIN | 1.69
